B1: SsaV cytoplasmic domain (SsaVC), residues 346-682 (domain or fragment)
chain: MVPGACPLILRLSPTLHSADLIRDIDAMRWFLFEDTGVPLPEVNIEVLPEPTEKLTVLLYQEPVFSLSIPAQADYLLIGADASVVGDSQTLPNGMGQICWLTKDMAHKAQGFGLDVFAGSQRISALLKCVLLRHMGEFIGVQETRYLMNAMEKNYSELVKELQRQLPINKIAETLQRLVSERVSIRDLRLIFGTLIDWAPREKDVLMLTEYVRIALRRHILRRLNPEGKPLPILRIGEGIENLVRESIRQTAMGTYTALSSRHKTQILQLIEQALKQSAKLFIVTSVDTRRFLRKITEATLFDVPILSWQELGEESLIQVVESIDLSEEELADNEE
notes: SsaV (SctV of the SPI-2 T3SS), Salmonella enterica serovar Typhimurium, residues 346-682 (cytoplasmic domain with the last residues of the linker); The His6 tag is thrombin-cleavable (pET15b); the purification as described names no cleavage step; also called SctVC of SPI-2; source: E. coli BL21, purified (Ni-NTA, Hitrap Q anion exchange, SEC)
B2: InvATM-SsaVL-SsaVC chimeric full-length protein (ISS) (other)
chain: MLLSLLNSARLRPELLILVLMVMIISMFVIPLPTYLVDFLIALNIVLAILVFMGSFYIDRILSFSTFPAVLLITTLFRLALSISTSRLILIEADAGEIIATFGQFVIGDSLAVGFVVFSIVTVVQFIVITKGSERVAEVAARFSLDGMPGKQMSIDADLKAGIIDADAARERRSVLERESQLYGSFDGAMKFIKGDAIAGIIIIFVNFIGGISVGMTRHGMDLSSALSTYTMLTIGDGLVAQIPALLIAISAGFIVTRVNGDSDNMGRNIMTQLLNNPFVLVVTAILTISMGTLPGFPLPVFVILSVVLSVLFYFIRRKKSVVSANGVEAPEKDSMVPGACPLILRLSPTLHSADLIRDIDAMRWFLFEDTGVPLPEVNIEVLPEPTEKLTVLLYQEPVFSLSIPAQADYLLIGADASVVGDSQTLPNGMGQICWLTKDMAHKAQGFGLDVFAGSQRISALLKCVLLRHMGEFIGVQETRYLMNAMEKNYSELVKELQRQLPINKIAETLQRLVSERVSIRDLRLIFGTLIDWAPREKDVLMLTEYVRIALRRHILRRLNPEGKPLPILRIGEGIENLVRESIRQTAMGTYTALSSRHKTQILQLIEQALKQSAKLFIVTSVDTRRFLRKITEATLFDVPILSWQELGEESLIQVVESIDLSEEELADNEE
notes: InvA, Salmonella enterica serovar Typhimurium, transmembrane region: what is left when residues 316-685 are replaced (residues 1-315); SsaV, Salmonella enterica serovar Typhimurium, residues 326-682 (linker SsaVL and cytoplasmic domain SsaVC); Eluted from the Strep-Tactin beads after the SUMO tag was cleaved on the beads; also called InvATM-SsaVC chimera; chimeric ISS; source: E. coli BL21, …

Assays:
[1] = target: the molecule itself; experiment: SEC; gel filtration of purified cytoplasmic domains (Superdex 200 Increase 10/300 GL; 20 mM Tris-HCl pH 8.0, 150 mM NaCl); Fig. 1B at two salt concentrations (physiological and high salt); Fig. 4D wild type and variants
[2] = target: the molecule itself; experiment: cryo-EM structure; single particle analysis of the GDN-solubilised chimera ISS (~10 mg/ml); C9 symmetry, 2.11 Å for the SsaVC part; TM and linker regions hardly visible

Protein | stoichiometry N [1] | stoichiometry N [2]
B1 | 9 | 
B2 |  | 9
